Source: the DeepSol protein solubility set

Test: soluble on expression in E. coli; label from the status in PepcDB or PDB records

| Sequence | soluble on expression in E. coli |
| --- | --- |
| IKPGAKMGVIGSGIASVYAKEALQELGLEASFLKIGTYPVPKKLILELLSTVDTVLIFEELEPVVEEQVRILAQEAGLEVSVLGKEGGFVSREGELDVSAFLEALRKAFDLDIEPDSGKVPLELAPRPPSLCAGCSHRATFYSMKKVFGKDAIYPSDIGCYTLGIQSGTVETTLCMGSSISIASGLYHAGEKRPICCSIGDSTFFHTGMNSLLNAVFNKANITVTILDNRITAMTGHQPNPGVGFTVTGEPTVEVSLAELCKAMGAGFVTVV | not soluble |
| MSLDPHAPLAERLRPRTLDDVVGQSHLLGPGKPLRLAFDSGKLHSMILWGPPGVGKTTLARLTAQAFGADFIAISAVLSGVKDIREAVERARMNQKLGRATILFVDEVHRFNKSQQDAFLPHVESGLFTFIGATTENPSFEVVGALLSRAQVYVLKSLTPDELGRLMQRALQELPSLKLADGVDKLLAAYADGDARKLLNLLEQLDTAARTAQVEEADAAFVENALAQSLRRFDKGGEAFYDQISALHKSVRGSDPDASLYWLVRMLDGGADPRYLGRRLVRMASEDIGMADPRALRLALDAVETYERLGSPEGELALAEACLYLACAPKSNAAYVAYNAARAFVEANPSNDVPIHLRNAPTKLMKELGYGRAYRYAHDEPEAYAAGERYFPDDIAEQQFYEPTPRGLEGKIAEKLAHLRELDDEAEKEGHHHHHH | soluble |
| MYKYISNELPQFFENGMLRFTQPGQFNDPFELLPRYVDFMGENTKQYILDNIEVLVKEIPQNEPWYIKLIPMSIKVFAIRLLLTSNHKRVKKVTDEIDAFGLSVANGQYRDIIDQSYGILCLSAKEDSLLMWSHYGNSHKGYVIEFDTSHKFFNQVIPNKKTGGVLDYAGTPLKVTYTKRRKTILFWQKAMSEVFLTKGSDWEYEQEYRMVLPLETSTEVVNGNIHLFHIPFDAVKSIIFGAKCEDEFIQNSIAKIHHWDSKHIDFQLFQFNLSDNDFELVRKKI | soluble |
| MANRTEKAAKTVKGTNPQFLVEKIIRQRIYDSMYWKEHCFALTAELVVDKGMDLRYIGGIYAGNIKPTPFLCLALKMLQIQPDKDIVLEFIQQEEFKYIRALGAMYLRLTFDSTEIYKYLEPLYNDFRKLRYMNKMGRFEAIYMDDFIDNLLREDRYCDIQLPRLQKRWALEEVDMLPSYKSLLDGDLVAMSDSDSEEEEVTKKEKPRLTSRRRSRSRDRERDVGDRREVREREKLKERRERGDDEPGPSSSGSGRRDDRDDRRRDRDRSRDRDRRDRRDDDRRDKKKESRRGGADNDEEREIAEANALRAKLGLAPLER | not soluble |
| MLKHDLDYLELLSESFPTATEAATEIINLEAILNLPKGTEHFLADIHGEYEAFIHVLKNASGSIRRKVDEVFGGQLRQNQKRELCTLIYYPREKLELVKQSDERMEDWYMVTLNQLIKVCQKAAEKYTRSKVRKTLPPKYSYIIQELLHEDGVNPNKSAYISSIFSSIISTGCADDFIIAISETIQRLVIDHLHVVGDVFDRGPGAHIIMDTLMKYHHFDIQWGNHDMLWMGAAVGNASCMANVVRIALRYANLDTLESGYGINLLPLARFAMDTYADDPCTVFKPKLAQADQTYDDKSVYLISQMHKAISIIQFKLEHQIIARHPEYKMDNRDLFHLVNFTDGTIKLSSGVYPMLDMNFPTVDPADPYALTEQEQNIVDRLMGCFMRSEKLQNHLKCLYRHGSMYLTYNMNLLYHASIPLNKDKSLKKVRVGDKTYAGRELLDKVEEMIRTAYVAPEKSDQRLAAVDYMWYLWCGPDSPLFDKAMMTTFERYFIEDKATHHEEKGYYYVYRQEKAVCEMILKEFGLEGPDTHIINGHVPVKAKKGELPIGAEGKLMLIDGGFSKAYQSSTGIAGYTLIFNSQGLHLVQHEPFSSTRKAIEEMEDIKSITVVREVTSHRMLVKDTDNGHLLSKQVENLKKLLQAYSYGLIKERKK | not soluble |
| MGSDKIHHHHHHMSLKKQIPIIFENTHYFIVNKPPGIPSQPPDCRTWGRTHPNLDPTPLLERFKAIYYSHREVELCRTVHRLDHCVTGGMLIAKTKDGSVKFSRFLQKGGNNGYKLQRKYVAIVESSGRFNKPNNYEIKYGPKYNFLISHGGREITKFKEVDENCIVLQLVTGKKHQIRNHVSQILNQPILNDKRHGSTVNFPELFNDQIALHSACIITKIGLQTKTHLIPMEHNNTGQLWSRKYVNEEGEFTLPIKEVLLENWDQ | not soluble |
| MTSNQLAQYIDHTALTAEKNEQDISTLCNEAIEHGFYSVCINSAYIPLAKEKLAGSNVKICTVVGFPLGANLTSVKAFETQESIKAGANEIDMVINVGWIKSQKWDEVKQDIQAVFNACNGTPLKVILETCLLTKDEIVKACEICKEIGVAFVKTSTGFNKGGATVEDVALMKNTVGNIGVKASGGVRDTETALAMIKAGATRIGASAGIAIISGTQDTQSTYLEHHHHHH | soluble |
| MPVKRSLKLDGLLEENSFDPSKITRKKSVITYSPTTGTCQMSLFASPTSSEEQKHRNGLSNEKRKKLNHPSLTESKESTTKDNDEFMMLLSKVEKLSEEIMEIMQNLSSIQALEGSRELENLIGISCASHFLKREMQKTKELMTKVNKQKLFEKSTGLPHKGQPQMSQPLLEHHHHHH | soluble |
| MGSDKIHHHHHHMLNLEQLNAFIAAVEKGSFSAAARHIGKSQSSVSIGVNNLELDLGVELFDRSTKYPQLTEQGERLYHQAKALMRQATRMESYAKGVIEAVEDQLVIGADPLVPMSVFDSALEKMAEKFPFTRVKLVKLTGNHLNRAIEADEVDVGFNIMSEAVPENLDFIGIARIEWVCICSPDYKFADLEAVDSEMLINERQIVCSSMLQNEYLAKLGRVSQETWEASDLDDMIRLVEQGIGWGIIPLSMYEEKAAIGTLSTFKPVIEKETGLITVDLLWKSTAQLGPAKSFFIDLLKR | not soluble |
| MGKVNVAKLRYMSRDDFRVLTAVEMGMKNHEIVPGSLIASIASLKHGGCNKVLRELVKHKLIAWERTKTVQGYRLTNAGYDYLALKTLSSRQVVESVGNQMGVGKESDIYIVANEEGQQFALKLHRLGRTSFRNLKNKRDYHKYRHNVSWLYLSRLSAMKEFAYMKALYERKFPVPKPIDYNRHAVVMELINGYPLCQIHHVEDPASVYDEAMELIVKLANHGLIHGDFNEFNLILDESDHITMIDFPQMVSTSHPNAEWYFDRDVKCIKDFFMKRFSYESELFPTFKDIRREDTLDVEVSASGYTKEMQADDELLHPLGPDDKNIETKEGSEFSFSDGEVAEKAEVYGSENESERNCLEESEGCYCRSSGDPEQIKEDSLSEESADARSFEMTEFNQALEEIKGQVVENNSVTEFSEEKNRTENYNRQDGQRVQGGVPAGSDEYEDECPHLIALSSLNREFRPFRDEENVGAMNQYRTRTLSITSSGSAVSCSTIPPELVKQKVKRQLTKQQKSAVRRRLQKGEANIFTKQRRENMQNIKSSLEAASFWGE | not soluble |
| MAKGIPYGISDFSRLIDQNYYYVDKTHFIPQIEEIANYLFLIRPRRFGKSVFLTMMRAYYDISQKDRFEERFGNLWIGKHPTPLQGIYQVLYFDFSKANLGRGSLEDNFNNYCCIQLNDFFSTYREYYQGEKELEQIIASTEAATKLHWLEATARRLGHLLYLIIDEYDNFTNVILSEQGKNLFRDLTHASGFYREYFKQFKGMFERIFLMGVSPVTLDDLSSGYNIDWNISVDPHFNMMMGFSETDVREMFGYYQKEGMLKGDIDAMINEMKPWYDNYCFAEASLKTDPRMFNCDMTLYYLRHRVNFDASPKELIDKNIRTDYSKLKMLARLDHENVSGEDRMSTIEEIAAKGEILVNLHTSFPAEKIVETDNFRSLLYYYGLLTMCGTRGDRIVMCIPNNCVREQYFGFLREYYQQRKEVFLPHLKDLIDDMAFDGQWRPLFEYIALAYKENSAIRDAIEGEHNLQGFFKAYLALASYYLVQPELEMNYGYCDFFLLPDKSRYPDTAHSYILELKYLPRTATDKELEEQAEEGRGQLKQYSRDKKVTTISEGTALHCILLQFKGWELIKCEEVSPKC | not soluble |
| AKIGLFYGTQTGVTQTIAESIQQEFGGESIVDLNDIANADASDLNAYDYLIIGCPTWGVGELQSDWEGIYDDLDSVNFQGKKVAYFGAGDQVGYSDNFQDAMGILEEKISSLGSQTVGYWPIEGYDFNESKAVRNNQFVGLAIDEDNQPDLTKNRIKTWVSQLKSEFGL | soluble |
| MGSDKIHHHHHHMVLPSMNKSVEAISNNHLQQPNKFPLINGLADVRDYYVANCLLFKLNKGSLRIENEFGEFIERSAPCLFLLEKDQTITLSMSEIEGHIDFSSLEVSYDLMQKFYKVFYSTRNYNDRELSLKTKPKYFFHADLLPGMSDTFDSILHGVACPRVCSNVSIDDHDYSYFSLMYLISAFVRKPGGFDFLERAIKITTKEKVYNIIISDLTRKWSQAEVAGKLFMSVSSLKRKLAAEEVSFSKIYLDARMNQAIKLLRMGAGNISQVATMCGYDTPSYFIAIFKRHFKITPLSFMRTMNH | not soluble |
